Data on 1 sequence can be found in patent publication US20210063395.

For data set [1], the system named is Q-gliadin (gliadin-BHQ-1 quencher conjugate). Conditions: Gli4-FAM-PEG-rGO fluorescence at 520 nm; SE 0.02.
Data set [2] relates to gliadin. Conditions: Gli4-FAM-PEG-rGO/Q-glia fluorescence at 520 nm; differs from Table 1 value.
Data set [3] concerns gliadin. Conditions: Gli4-FAM-PEG-rGO/Q-glia fluorescence recovery at 520 nm, 100 nM aptamer; SE 0.1912; p66 gives about 0.11 ppm.
The subject of data set [4] is lactose protein (as named; milk protein presumably). As to conditions: Gli4-FAM-PEG-rGO/Q-glia fluorescence at 520 nm; specificity control.

Like-named read-outs stand apart in the source and are kept apart here.

Regarding “CCAGTCTCCCGTTTACCGCGCCTACACATGTCTGAATGCC [Gli4-FAM]”, the Kd in data set [1] was found to be 148 ppm; in the data set with gliadin [2], 0.11 ppm; in the data set on gliadin [3], 0.76 ppm; in data set [4], 13.2 ppm.
